Test results as given in patent US20170369569A1 (KAO, published 2017).
Ends that are not written are not given here.

How the values were obtained:
[1] = target: T1, PEGylated N-terminal 13 amino acids of nonactive GIP (GIP(3-15)), antigen (2) for measurement (human, also: PEGylated, site not given here); test: ELISA on immobilized antigen, hybridoma culture supernatant, HRP-labeled anti-mouse Ig secondary antibody
T1 construct: also called PEGylated GIP(3-15)
T1 peptide: EGTFISDYSIAMD
Experimental: (§1) The antigens (1) and (2) for measurement were each diluted to 1 μg/mL with PBS(−) and immobilized onto plates.

[2] = target: T2, nonactive GIP, GIP(3-42) (human); test: sandwich ELISA, anti-total GIP capture antibody, biotinylated anti-active GIP antibody (1 µg/mL) as detection
T2 peptide: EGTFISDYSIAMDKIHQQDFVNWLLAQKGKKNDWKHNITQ
Experimental: (§2) The reactivity of the monoclonal antibody obtained in Example 1 with active GIP was confirmed by ELISA. The amino group of the anti-active GIP monoclonal antibody was biotinylated using a NH₂ group biotinylation kit (manufactured by Dojindo Laboratories). ELISA was conducted using 1 μg/mL prepared biotinylated anti-active GIP monoclonal antibody instead of a detection antibody ‘GIP detection antibody’ (biotinylated anti-total GIP monoclonal antibody) included in Human (total) GIP ELISA kit (manufactured by Merck Millipore). Six 4-fold serial dilutions (8.2 to 2000 pg/mL) were prepared with a 2000 pg/mL solution of GIP(1-42) or GIP(3-42) as the highest concentration. The capture antibody used was an anti-total GIP monoclonal antibody (included in the Human GIP (total) ELISA kit manufactured by Merck Millipore). The detection antibody used was the biotinylated anti-active GIP monoclonal antibody. A sandwich ELISA system containing a peroxidase-streptavidin conjugate was used in detection. GIP concentrations were plotted on the X axis against absorbance of 450 nm to 590 nm on the Y axis to prepare a calibration curve (FIG. 1).

[3] = target: T3, GIP (1-10) synthetic peptide; test: direct ELISA on immobilized peptide (1 µg/mL), biotinylated antibody, peroxidase-streptavidin
T3 construct: Free NH2 and COOH termini as printed
T3 peptide: H-YAEGTFISDY-OH
Experimental: (§3) The synthesized 6 peptides were each diluted to 1 μg/mL with PBS(−) and immobilized onto 96-well plates. ELISA was conducted using the biotinylated anti-active GIP monoclonal antibody and a peroxidase-streptavidin conjugate for detection.

[4] = target: T4, GIP (1-9) synthetic peptide; test: as above
T4 peptide: H-YAEGTFISD-OH
Experimental: as §3

[5] = target: T5, GIP(1-8) synthetic peptide; test: as above
T5 peptide: H-YAEGTFIS-OH
Experimental: as §3

[6] = target: T6, active GIP, GIP(1-42) (human); test: sandwich ELISA, anti-total GIP capture antibody, biotinylated anti-active GIP antibody (1 µg/mL) as detection, GIP 8.2 to 2000 pg/mL
T6 construct: also called human active GIP
T6 peptide: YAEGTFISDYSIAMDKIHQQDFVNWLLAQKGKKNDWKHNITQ
Experimental: as §2

[7] = target: T7, PEGylated N-terminal 15 amino acids of active GIP (GIP(1-15)), antigen (1) for measurement (human, also: PEGylated, site not given here); test: ELISA on immobilized antigen (1 µg/mL), hybridoma culture supernatant, HRP-labeled anti-mouse Ig secondary antibody
T7 construct: also called PEGylated GIP(1-15)
T7 peptide: YAEGTFISDYSIAMD
Experimental: as §1

[8] = target: T8, GIP(1-6) synthetic peptide; test: direct ELISA on immobilized peptide, biotinylated antibody, peroxidase-streptavidin
T8 peptide: H-YAEGTF-OH
Experimental: as §3

[9] = target: T9, GIP(1-6)+GIP nonspecific 4aa (random 4aa) synthetic peptide; test: as above
T9 construct: also called GIP(1-6)+random 4aa
T9 peptide: H-YAEGTFVNLV-OH
Experimental: as §3

[10] = target: T10, GIP(1-7) synthetic peptide; test: as above
T10 peptide: H-YAEGTFI-OH
Experimental: as §3

binding result [2]: no binding (tested: 8.2 to 2000 pg/mL)
binding result [3]: binds
binding result [4]: binds
binding result [5]: binds
binding result [6]: binds
binding result [7]: binds
B1: anti-active GIP monoclonal antibody produced from hybridoma 9B9H5-B9 line (antibody, V domains shown)
VH: QVQLQQPGAELVKPGASVKLSCKASGYTFTSFWMHWVIQRPGQGLEWIGEMNPSDGRTHFNEKFKTKATLTIDTSSNTAYMELNSLTSEDSAVYYCARRMEDWGQGTLVTVSA
VL: DIKMTQSPSSMYASLGERVTITCKASQDINSYLGWFQQKPGKSPKTLIYGANRLVDGVPSRFSGSGSGQDYSLTISSLEYDDMGIYYCLQYDEFPLTFGAGTKLELKR
notes: Mouse (BALB/c) hybridoma monoclonal antibody, purified on protein A. It was amplified with a mouse IgG H chain-specific primer; also called biotinylated anti-active GIP monoclonal antibody; anti-active GIP antibody of the present invention
binding result [1]: no binding (tested: antigen coated at 1 µg/mL)
binding result [8]: no binding (tested: peptide coated at 1 µg/mL)
binding result [9]: no binding (tested: peptide coated at 1 µg/mL)
binding result [10]: no binding (tested: peptide coated at 1 µg/mL)
